This assay deals with HIV-1 BG505.W6M.Env.C2 pseudovirus (Env) (HIV-1). Briefly: cell-based or functional assay.

Substance VRC34 (antibody) registered a Fold change GFP-/GFP+ (droplet neutralization, NGS reads), Round 1 of 1.78.
anti-HIV antibody VRC01 showed a Fold change GFP-/GFP+ (droplet neutralization, NGS reads), Round 1 of 1.08.

Source of the values: patent US20230221313A1.
